Among the data in PMC12636033, “Chemical Engineering of Transcription Factors Uncovered Cell-Permeable μMax Modulators” are binding signal values, retold here.

B1: dBr_Jan07_23467 (dsDNA)
DNA 1: ATTGGGGATGACAAGAGCTCTTCACAAAGAGGCCTTGTCTGTGTTCCGTTGTCCGTGCTG
DNA 2: CAGCACGGACAACGGAACACAGACAAGGCCTCTTTGTGAAGAGCTCTTGTCATCCCCAAT
B2: dBr_Jan07_00680 (dsDNA)
DNA 1: ACACCAGCGCGTCAGGAGTTGTGTGAACCCACACCCGTCTGTGTTCCGTTGTCCGTGCTG
DNA 2: CAGCACGGACAACGGAACACAGACGGGTGTGGGTTCACACAACTCCTGACGCGCTGGTGT
B3: dBr_Jan07_08921 (dsDNA)
DNA 1: CAGACAAAGTCACTGGGCGAGCATGAACCGTTTGCCGTCTGTGTTCCGTTGTCCGTGCTG
DNA 2: CAGCACGGACAACGGAACACAGACGGCAAACGGTTCATGCTCGCCCAGTGACTTTGTCTG
B4: dBr_Jan07_22296 (dsDNA)
DNA 1: TGAAGTGATTGTATGACCTTCTCCACTCTGCCGCCAGTCTGTGTTCCGTTGTCCGTGCTG
DNA 2: CAGCACGGACAACGGAACACAGACTGGCGGCAGAGTGGAGAAGGTCATACAATCACTTCA
B5: dBr_Jan07_33770 (dsDNA)
DNA 1: GCGACCCTTCCACGTGCGTGTGTTAATGAGCGCATTGTCTGTGTTCCGTTGTCCGTGCTG
DNA 2: CAGCACGGACAACGGAACACAGACAATGCGCTCATTAACACACGCACGTGGAAGGGTCGC
B6: dBr_Jan07_18521 (dsDNA)
DNA 1: ACCAATTAGAACGTATCTATGGAGCTTGCCCGATCGGTCTGTGTTCCGTTGTCCGTGCTG
DNA 2: CAGCACGGACAACGGAACACAGACCGATCGGGCAAGCTCCATAGATACGTTCTAATTGGT
B7: dBr_Jan07_30609 (dsDNA)
DNA 1: CGGAAGTCAGATAAAAGGTGGTATCGCGGCTTTAAAGTCTGTGTTCCGTTGTCCGTGCTG
DNA 2: CAGCACGGACAACGGAACACAGACTTTAAAGCCGCGATACCACCTTTTATCTGACTTCCG
B8: dBr_Jan07_16988 (dsDNA)
DNA 1: CCACCTAGGGGATACTCGCAAGGTCGGGAAACCACCGTCTGTGTTCCGTTGTCCGTGCTG
DNA 2: CAGCACGGACAACGGAACACAGACGGTGGTTTCCCGACCTTGCGAGTATCCCCTAGGTGG
B9: dBr_Jan07_30748 (dsDNA)
DNA 1: CCGCAAGGAGCGCACTAGCATCTCCTCTCTTGGGCCGTCTGTGTTCCGTTGTCCGTGCTG
DNA 2: CAGCACGGACAACGGAACACAGACGGCCCAAGAGAGGAGATGCTAGTGCGCTCCTTGCGG
B10: dBr_Jan07_14635 (dsDNA)
DNA 1: CCTAGAATTCCAACATGACTGTCAACTTGGGAATCTGTCTGTGTTCCGTTGTCCGTGCTG
DNA 2: CAGCACGGACAACGGAACACAGACAGATTCCCAAGTTGACAGTCATGTTGGAATTCTAGG
B11: dBr_Jan07_40185 (dsDNA)
DNA 1: AGAATCAAGGTGAGCGAGCAAGGCTTAAAATCCCGCGTCTGTGTTCCGTTGTCCGTGCTG
DNA 2: CAGCACGGACAACGGAACACAGACGCGGGATTTTAAGCCTTGCTCGCTCACCTTGATTCT
B12: dBr_Jan07_23776 (dsDNA)
DNA 1: CAGCCGCGGCGCCTCTAGCAATCAGGAGCGTCGGTAGTCTGTGTTCCGTTGTCCGTGCTG
DNA 2: CAGCACGGACAACGGAACACAGACTACCGACGCTCCTGATTGCTAGAGGCGCCGCGGCTG
B13: dBr_Jan07_10250 (dsDNA)
DNA 1: CCGCTCCACGAGCCACGACCGAATACCGTACACGTGGTCTGTGTTCCGTTGTCCGTGCTG
DNA 2: CAGCACGGACAACGGAACACAGACCACGTGTACGGTATTCGGTCGTGGCTCGTGGAGCGG
B14: dBr_Jan07_13143 (dsDNA)
DNA 1: AGCTGTTGGTGCATCCTATGTCGAAGACTGGCGGCGGTCTGTGTTCCGTTGTCCGTGCTG
DNA 2: CAGCACGGACAACGGAACACAGACCGCCGCCAGTCTTCGACATAGGATGCACCAACAGCT
B15: dBr_Jan07_40846 (dsDNA)
DNA 1: CCAGATCAACGCTTGCTAAATAAACGCAGCAAACTGGTCTGTGTTCCGTTGTCCGTGCTG
DNA 2: CAGCACGGACAACGGAACACAGACCAGTTTGCTGCGTTTATTTAGCAAGCGTTGATCTGG
B16: dBr_Jan07_22655 (dsDNA)
DNA 1: GCCCACCCACCGAAATCGTCAATAGGCCTCACAGAAGTCTGTGTTCCGTTGTCCGTGCTG
DNA 2: CAGCACGGACAACGGAACACAGACTTCTGTGAGGCCTATTGACGATTTCGGTGGGTGGGC
B17: dBr_Jan07_07252 (dsDNA)
DNA 1: ATCCTGCCGCTTTCAATCGCCGGACAGCGATCGACAGTCTGTGTTCCGTTGTCCGTGCTG
DNA 2: CAGCACGGACAACGGAACACAGACTGTCGATCGCTGTCCGGCGATTGAAAGCGGCAGGAT
B18: dBr_Jan07_11873 (dsDNA)
DNA 1: CCAGAGTTCGTAGGCAAAAACCCGCGACGGTATGCCGTCTGTGTTCCGTTGTCCGTGCTG
DNA 2: CAGCACGGACAACGGAACACAGACGGCATACCGTCGCGGGTTTTTGCCTACGAACTCTGG
B19: dBr_Jan07_34791 (dsDNA)
DNA 1: GACTTGCCTACTACGCCAGAATTAGCTAGTTGGGTAGTCTGTGTTCCGTTGTCCGTGCTG
DNA 2: CAGCACGGACAACGGAACACAGACTACCCAACTAGCTAATTCTGGCGTAGTAGGCAAGTC
B20: dBr_Jan07_17054 (dsDNA)
DNA 1: GTTCTCCCTTGATTCAAGTATAACAAGATACCCATCGTCTGTGTTCCGTTGTCCGTGCTG
DNA 2: CAGCACGGACAACGGAACACAGACGATGGGTATCTTGTTATACTTGAATCAAGGGAGAAC
B21: dBr_Jan07_31951 (dsDNA)
DNA 1: CATGAGAATCGGCCCGGGTTACGTTCGCGGTACAATGTCTGTGTTCCGTTGTCCGTGCTG
DNA 2: CAGCACGGACAACGGAACACAGACATTGTACCGCGAACGTAACCCGGGCCGATTCTCATG
B22: dBr_Jan07_28572 (dsDNA)
DNA 1: CGCTTTGCTCAGACGTCTGACTCGGACTATGAGAGGGTCTGTGTTCCGTTGTCCGTGCTG
DNA 2: CAGCACGGACAACGGAACACAGACCCTCTCATAGTCCGAGTCAGACGTCTGAGCAAAGCG
B23: dBr_Jan07_18594 (dsDNA)
DNA 1: CCAACATCTAAGACCCTGGTAGGGCCTTTCCGACCCGTCTGTGTTCCGTTGTCCGTGCTG
DNA 2: CAGCACGGACAACGGAACACAGACGGGTCGGAAAGGCCCTACCAGGGTCTTAGATGTTGG
B24: dBr_Jan07_19002 (dsDNA)
DNA 1: CTATGCCGGGATAGTTCACCATACGGTCACAGCTTTGTCTGTGTTCCGTTGTCCGTGCTG
DNA 2: CAGCACGGACAACGGAACACAGACAAAGCTGTGACCGTATGGTGAACTATCCCGGCATAG
B25: dBr_Jan07_03085 (dsDNA)
DNA 1: TGTACGGGAGACCTTGCGGCGCCTACGAGCAACAACGTCTGTGTTCCGTTGTCCGTGCTG
DNA 2: CAGCACGGACAACGGAACACAGACGTTGTTGCTCGTAGGCGCCGCAAGGTCTCCCGTACA
B26: dBr_Jan07_04854 (dsDNA)
DNA 1: CTGGGTTGGCCCTGCATTGGATACCTTTGAGCTCTCGTCTGTGTTCCGTTGTCCGTGCTG
DNA 2: CAGCACGGACAACGGAACACAGACGAGAGCTCAAAGGTATCCAATGCAGGGCCAACCCAG
B27: dBr_Jan07_28323 (dsDNA)
DNA 1: GGCTCAAGACAGATTGCAGCTTTGACAACCGAATTCGTCTGTGTTCCGTTGTCCGTGCTG
DNA 2: CAGCACGGACAACGGAACACAGACGAATTCGGTTGTCAAAGCTGCAATCTGTCTTGAGCC
B28: dBr_Jan07_08379 (dsDNA)
DNA 1: CGCGGAAGCCTCTACGCTTGATTGTATCCAACACCCGTCTGTGTTCCGTTGTCCGTGCTG
DNA 2: CAGCACGGACAACGGAACACAGACGGGTGTTGGATACAATCAAGCGTAGAGGCTTCCGCG
B29: dBr_Jan07_40232 (dsDNA)
DNA 1: TCGCGGAGACACCGCACTACGAGTGGCGAGAAGACCGTCTGTGTTCCGTTGTCCGTGCTG
DNA 2: CAGCACGGACAACGGAACACAGACGGTCTTCTCGCCACTCGTAGTGCGGTGTCTCCGCGA
B30: dBr_Jan07_21945 (dsDNA)
DNA 1: GCAGGGGTGTAGGACAACTCGGCGTCAGTGGGTAGTGTCTGTGTTCCGTTGTCCGTGCTG
DNA 2: CAGCACGGACAACGGAACACAGACACTACCCACTGACGCCGAGTTGTCCTACACCCCTGC
B31: dBr_Jan07_36343 (dsDNA)
DNA 1: ATCGGTTAAAGTAACTATATTGGGCTTATCGGACCAGTCTGTGTTCCGTTGTCCGTGCTG
DNA 2: CAGCACGGACAACGGAACACAGACTGGTCCGATAAGCCCAATATAGTTACTTTAACCGAT
B32: dBr_Jan07_08177 (dsDNA)
DNA 1: GGAGGTCTAACTGGGAACGGCAATGCGCCCATATTTGTCTGTGTTCCGTTGTCCGTGCTG
DNA 2: CAGCACGGACAACGGAACACAGACAAATATGGGCGCATTGCCGTTCCCAGTTAGACCTCC

The target in the data set is WT Max (Homo sapiens, UniProt P61244-2 13-93, M65Nle, norleucine written as M; other non-natural residues written as X). Kind of data set: PBM; 50-200 nM protein; PBS, 2% milk, BSA, salmon testes DNA, 0.02% Triton X-100. The note with it: chain copies: 2; label: surface-attached array probe.
Sequence of WT Max (P61244 other isoform, or with tags, fused parts or gaps M65Nle): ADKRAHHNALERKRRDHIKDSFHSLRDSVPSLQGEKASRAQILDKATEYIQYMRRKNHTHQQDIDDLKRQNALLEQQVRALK
B1: the binding signal was -0.43 robust z of log adjusted intensity (ours), mean of two arrays.

As to B2, the binding signal is -0.81 robust z of log adjusted intensity (ours), mean of two arrays.

Consider B3, for which the binding signal is -0.81 robust z of log adjusted intensity (ours), mean of two arrays.

Turning to B4, the binding signal is -0.32 robust z of log adjusted intensity (ours), mean of two arrays.

For B5, the binding signal was 4.84 robust z of log adjusted intensity (ours), mean of two arrays.

On to B6, for which the binding signal is -0.67 robust z of log adjusted intensity (ours), mean of two arrays.

For B7, the binding signal is -0.46 robust z of log adjusted intensity (ours), mean of two arrays.

As to B8, the binding signal was -0.45 robust z of log adjusted intensity (ours), mean of two arrays.

Turning to B9, the binding signal is -0.64 robust z of log adjusted intensity (ours), mean of two arrays.

With B10, the binding signal was -0.81 robust z of log adjusted intensity (ours), mean of two arrays.

For B11, the binding signal was -0.61 robust z of log adjusted intensity (ours), mean of two arrays.

For the molecule B12, the binding signal was -0.83 robust z of log adjusted intensity (ours), mean of two arrays.

For the molecule B13, the binding signal was 4.92 robust z of log adjusted intensity (ours), mean of two arrays.

B14: the binding signal is -0.67 robust z of log adjusted intensity (ours), mean of two arrays.

B15: the binding signal is -0.51 robust z of log adjusted intensity (ours), mean of two arrays.

For the molecule B16, the binding signal was -0.54 robust z of log adjusted intensity (ours), mean of two arrays.

Consider B17, for which the binding signal was -0.55 robust z of log adjusted intensity (ours), mean of two arrays.

Take B18: the binding signal is -0.41 robust z of log adjusted intensity (ours), mean of two arrays.

B19: the binding signal was -0.49 robust z of log adjusted intensity (ours), mean of two arrays.

For B20, the binding signal was -0.28 robust z of log adjusted intensity (ours), mean of two arrays.

For the molecule B21, the binding signal was -0.54 robust z of log adjusted intensity (ours), mean of two arrays.

Take B22: the binding signal was -0.41 robust z of log adjusted intensity (ours), mean of two arrays.

As to B23, the binding signal was -0.86 robust z of log adjusted intensity (ours), mean of two arrays.

Turning to B24, the binding signal is -0.39 robust z of log adjusted intensity (ours), mean of two arrays.

In the case of B25, the binding signal was -0.59 robust z of log adjusted intensity (ours), mean of two arrays.

Regarding B26, the binding signal was -0.33 robust z of log adjusted intensity (ours), mean of two arrays.

In the case of B27, the binding signal is -0.41 robust z of log adjusted intensity (ours), mean of two arrays.

For the molecule B28, the binding signal is -0.26 robust z of log adjusted intensity (ours), mean of two arrays.

Consider B29, for which the binding signal is -0.86 robust z of log adjusted intensity (ours), mean of two arrays.

With B30, the binding signal was -0.45 robust z of log adjusted intensity (ours), mean of two arrays.

Turning to B31, the binding signal was -0.56 robust z of log adjusted intensity (ours), mean of two arrays.

For the molecule B32, the binding signal was -0.41 robust z of log adjusted intensity (ours), mean of two arrays.
